Test results taken from patent publication US20100196385A1 (AstraZeneca / MedImmune, published 2010).

T1: human Dll1 (human, UniProt O00548 18-723)
T1 construct: whole, on cells
T1 sequence (looked up): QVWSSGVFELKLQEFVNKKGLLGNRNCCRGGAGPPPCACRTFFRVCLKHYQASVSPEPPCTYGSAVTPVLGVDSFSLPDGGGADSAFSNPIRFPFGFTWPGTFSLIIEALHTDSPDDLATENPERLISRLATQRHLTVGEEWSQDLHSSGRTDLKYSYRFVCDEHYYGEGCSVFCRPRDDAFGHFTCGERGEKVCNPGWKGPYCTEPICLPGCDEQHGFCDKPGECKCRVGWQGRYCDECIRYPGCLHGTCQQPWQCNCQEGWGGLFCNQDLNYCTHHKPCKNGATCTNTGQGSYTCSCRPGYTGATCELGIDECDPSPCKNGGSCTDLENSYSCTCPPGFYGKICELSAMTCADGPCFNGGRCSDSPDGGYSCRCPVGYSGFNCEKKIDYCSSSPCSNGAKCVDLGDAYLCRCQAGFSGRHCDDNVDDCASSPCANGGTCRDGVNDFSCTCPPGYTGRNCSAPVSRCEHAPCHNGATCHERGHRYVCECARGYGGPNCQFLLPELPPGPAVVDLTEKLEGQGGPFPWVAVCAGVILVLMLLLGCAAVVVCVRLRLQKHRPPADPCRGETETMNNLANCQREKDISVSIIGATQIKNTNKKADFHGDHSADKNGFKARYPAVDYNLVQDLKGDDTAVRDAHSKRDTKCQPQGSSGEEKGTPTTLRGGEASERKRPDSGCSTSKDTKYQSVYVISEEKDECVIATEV


Columns and labels:
[1] = molecular target: T2, human Jagged1 (human, UniProt P78504 34-1218); experiment: FACS, 5 µg/ml, 293T cells with human Jagged1 vs mock
T2 construct: whole, on cells
Description: (§1) The ability of the purified antibodies to bind to human Jagged1 and Dll1 was determined by FACS analysis. […] Cells were resuspended in PBS containing 2% FCS and seeded at 50000 cells/well into V-bottomed plates. Anti-DLL4 antibodies diluted in PBS containing 2% FCS were added at a final concentration of 5 or 15 μg/ml and plates were incubated for 1 h at 4° C. […] Data was analyzed by comparing the shift in geometric mean fluorescence in the mock-transfected cells to that observed in the Jagged1- or Dll1-transfected cells and is shown in Tables 16 and 17.

[2] = molecular target: T3, full length human DLL4 (human, UniProt Q9NR61 27-685); experiment: FMAT, hybridoma supernatant, 293T cells with human DLL4
T3 construct: whole, on cells; also called native DLL4 expressed in HEK293 cells
Description: (§2) Cells diluted in PBS containing 2% FBS were seeded at a density of 3000 expressing and 15000 mock transfected cells per well in 384 well plates (Corning Costar, catalog #3712). Immediately after plating, 15 or 20 μl/well of hybridoma supernatants and 10 μl/well of secondary antibody (Goat anti-human IgG Fc Cy5, final concentration 750 ng/ml) were added and plates incubated for 3 h at room temperature prior to reading the fluorescence on the FMAT 8200 instrument (Applied Biosystems). The binding of human Notch1/Fc chimera (R&D systems, catalog #3647-TK), diluted 1:2 from 2.86 μg/ml was used as a positive control for DLL4 and human Notch3/Fc chimera diluted from 10 μg/ml was used a positive control for binding to Jagged1. Results for 12 hybridoma supernatants showing binding of hybridoma supernatants to human/cynomolgus monkey DLL4 and human Jagged are shown in Table 3.

[3] = molecular target: T2, human Jagged1; experiment: FACS, 5 µg/ml, 293T cells with human Jagged1
Description: as §1

[4] = molecular target: T1, human Dll1; experiment: FACS, 15 µg/ml, 293T cells with human Dll1
Description: as §1

[5] = molecular target: T3, full length human DLL4; experiment: FMAT competition, supernatant vs Alexa-647 human Notch1/Fc, 293T cells with human DLL4
Description: Transfected and untransfected 239T cells were reconstituted in PBS containing 2% FCS and 5000 transfected and 17500 non-transfected cells were plated in 20 μl into wells of a 384-well tissue culture plate (Corning Costar, catalog #3712). Subsequently, 20 μl of hybridoma supernatant was added and plates were incubated at 4° C. for 1 h, at which time 20 μl of Alexa-647 labeled human Notch1/Fc was added at a final concentration of 6.7 ng/ml. After a further 3 h incubation at 4° C., the amount of bound Notch1/Fc was determined by reading the fluorescence in each well using an FMAT 8200 instrument (Applied Biosystems). Results are expressed as % inhibitions with the minimum inhibition in the assay being determined by the effects of non-DLL4 binding supernatants prepared in a similar way as described in example 2, and the maximum inhibition being defined as the signal obtained in the presence of a saturating concentration of unlabeled Notch1/Fc. N.T.=not tested

[6] = molecular target: T2, human Jagged1; experiment: FMAT, hybridoma supernatant, 293T cells with human Jagged1
Description: as §2

[7] = molecular target: T1, human Dll1; experiment: FACS, 15 µg/ml, 293T cells with human Dll1 vs mock
Description: as §1

[8] = molecular target: DLL4 extracellular domain (R&D systems, catalog #1506-D4/CF) (UniProt Q9NR61 27-529, limits assumed); experiment: cell-based or functional assay
[9] = molecular target: T3, full length human DLL4; experiment: FMAT competition, purified antibody vs Alexa-647 human Notch1/Fc, 293T cells with human DLL4
Description: To discriminate between the purified antibodies based upon their ability to prevent the interaction between full-length recombinant DLL4 and soluble Notch1/Fc, the following assays were performed. Transfected and untransfected 239T cells were reconstituted in PBS containing 2% FCS and 5000 transfected and 17500 non-transfected cells were plated in 30 μl into wells of a 384-well tissue culture plate (Corning Costar, catalog #3712). Subsequently, 30 μl of purified antibodies, serial diluted from 5 μg/ml hybridoma supernatant was added and plates were incubated at 4° C. for 1 h, at which time 20 μl of 100 ng/ml Alexa-647 labeled human Notch1/Fc was added. After a further 3 h incubation at 4° C., the amount of bound Notch1/Fc was determined by reading the fluorescence in each well using an FMAT 8200 instrument (Applied Biosystems).

T3 sequence (Q9NR61 27-685): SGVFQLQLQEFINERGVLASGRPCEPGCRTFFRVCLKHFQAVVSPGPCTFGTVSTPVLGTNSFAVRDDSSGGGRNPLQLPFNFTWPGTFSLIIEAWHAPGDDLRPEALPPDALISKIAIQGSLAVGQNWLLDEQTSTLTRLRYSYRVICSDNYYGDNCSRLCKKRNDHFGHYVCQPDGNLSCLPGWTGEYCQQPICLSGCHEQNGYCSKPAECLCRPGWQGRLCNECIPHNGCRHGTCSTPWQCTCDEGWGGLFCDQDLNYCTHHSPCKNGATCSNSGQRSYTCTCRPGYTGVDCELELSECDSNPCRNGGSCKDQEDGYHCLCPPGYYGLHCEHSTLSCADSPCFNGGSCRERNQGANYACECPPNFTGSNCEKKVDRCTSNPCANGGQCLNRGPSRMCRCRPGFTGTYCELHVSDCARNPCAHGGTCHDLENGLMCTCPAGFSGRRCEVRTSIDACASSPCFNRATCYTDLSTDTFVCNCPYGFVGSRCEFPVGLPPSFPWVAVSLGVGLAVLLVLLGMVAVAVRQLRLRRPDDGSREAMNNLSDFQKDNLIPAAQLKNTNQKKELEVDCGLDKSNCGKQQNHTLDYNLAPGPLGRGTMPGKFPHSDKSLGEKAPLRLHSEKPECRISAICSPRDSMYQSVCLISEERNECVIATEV
Sequence of DLL4 extracellular domain (R&D systems, catalog #1506-D4/CF) (Q9NR61 27-529 limits assumed): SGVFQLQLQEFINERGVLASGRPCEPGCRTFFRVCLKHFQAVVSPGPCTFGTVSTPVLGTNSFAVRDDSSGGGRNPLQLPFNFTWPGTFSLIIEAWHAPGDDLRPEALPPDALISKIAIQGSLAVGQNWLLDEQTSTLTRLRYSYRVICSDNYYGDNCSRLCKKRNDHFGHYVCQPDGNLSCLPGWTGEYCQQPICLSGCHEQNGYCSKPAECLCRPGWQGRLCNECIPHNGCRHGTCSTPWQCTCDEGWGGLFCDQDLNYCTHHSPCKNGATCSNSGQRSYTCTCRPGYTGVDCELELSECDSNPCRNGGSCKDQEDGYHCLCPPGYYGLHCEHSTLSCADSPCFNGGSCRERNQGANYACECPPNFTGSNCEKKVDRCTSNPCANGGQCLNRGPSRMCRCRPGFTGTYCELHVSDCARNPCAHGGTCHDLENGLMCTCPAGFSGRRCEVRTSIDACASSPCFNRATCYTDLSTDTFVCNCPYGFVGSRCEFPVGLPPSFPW
T2 sequence (P78504 34-1218): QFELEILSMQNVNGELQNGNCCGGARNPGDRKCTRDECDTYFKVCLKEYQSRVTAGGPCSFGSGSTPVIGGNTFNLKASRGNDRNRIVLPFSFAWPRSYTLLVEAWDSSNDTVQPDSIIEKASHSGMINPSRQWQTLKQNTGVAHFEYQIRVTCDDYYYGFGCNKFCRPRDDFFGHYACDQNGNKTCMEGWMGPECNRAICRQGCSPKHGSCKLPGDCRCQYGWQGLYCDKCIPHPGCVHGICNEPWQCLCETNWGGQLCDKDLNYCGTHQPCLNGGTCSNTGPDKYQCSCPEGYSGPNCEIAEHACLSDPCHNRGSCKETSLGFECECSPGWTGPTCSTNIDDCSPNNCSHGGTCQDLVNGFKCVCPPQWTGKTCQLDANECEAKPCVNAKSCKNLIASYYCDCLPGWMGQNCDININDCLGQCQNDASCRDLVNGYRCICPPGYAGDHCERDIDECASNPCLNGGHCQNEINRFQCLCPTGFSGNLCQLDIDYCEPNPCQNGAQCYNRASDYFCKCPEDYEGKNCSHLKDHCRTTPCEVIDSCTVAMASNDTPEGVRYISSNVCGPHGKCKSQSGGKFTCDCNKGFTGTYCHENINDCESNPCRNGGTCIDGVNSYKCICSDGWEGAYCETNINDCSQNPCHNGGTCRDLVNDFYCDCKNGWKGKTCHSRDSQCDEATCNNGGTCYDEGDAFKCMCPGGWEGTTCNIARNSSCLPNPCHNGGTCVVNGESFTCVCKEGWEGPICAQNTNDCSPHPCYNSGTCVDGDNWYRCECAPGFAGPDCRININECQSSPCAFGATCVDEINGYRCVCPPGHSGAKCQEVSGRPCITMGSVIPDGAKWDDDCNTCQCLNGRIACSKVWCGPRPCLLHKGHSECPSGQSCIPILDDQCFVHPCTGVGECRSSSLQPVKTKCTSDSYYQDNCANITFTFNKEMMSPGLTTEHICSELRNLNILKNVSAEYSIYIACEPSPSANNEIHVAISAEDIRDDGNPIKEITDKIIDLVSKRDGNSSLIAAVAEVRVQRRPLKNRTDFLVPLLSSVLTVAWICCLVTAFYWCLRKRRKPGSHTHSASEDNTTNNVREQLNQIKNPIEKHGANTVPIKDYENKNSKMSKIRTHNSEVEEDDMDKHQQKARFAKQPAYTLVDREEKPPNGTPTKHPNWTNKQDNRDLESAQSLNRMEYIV

Binder	Jagged1/mock ratio [1]	Count [2]	FL1 [2]	FL1 x count [2]	Jagged1/293T X Geo mean [3]	Dll1/293T X Geo mean [4]	% inhibition n = 1 [5]	% inhibition n = 2 [5]	% inhibition n = 3 [5]	Mean % inhibition [5]	Count [6]	FL1 [6]	FL1 x count [6]	Dll1/mock ratio [7]	% inhibition 1 µg/ml, AVERAGE (HUVEC proliferation on coated DLL4) [8]	% inhibition 1 µg/ml, N = 1 (HUVEC proliferation on coated DLL4) [8]	% inhibition 1 µg/ml, N = 2 (HUVEC proliferation on coated DLL4) [8]	% inhibition 10 µg/ml, AVERAGE (HUVEC proliferation on coated DLL4) [8]	% inhibition 10 µg/ml, N = 1 (HUVEC proliferation on coated DLL4) [8]	% inhibition 10 µg/ml, N = 2 (HUVEC proliferation on coated DLL4) [8]	further results
1E4 (antibody, IgG2, V domains shown, Fully human; also used where no isotype is printed) VH: QVQLVESGGGVVQPGRSLRLSCAASGFTFSSYGMHWVRQAPGKGLEWVAVTWYDGSNKYYADSVKGRFTISRDNSKNTLYLQMNSLRAEDTAVYYCARENCSSTSCYYTVTTDYYGMDVWGQGTTVTVSS VL: EIVLTQSPGTLSLSPGERATLSCRASQRVSSSYLTWYQQKPGQAPRLLIYGASIRATGIPDRFSGSGSGTDFTLTITRLEPEDFAVYFCQQCYTSPITFGQGTRLDIK	1.13	206	10400	2.14e+06	16.9	31.7	98%	99%	113%	110%	2	8020	16000	1.15	74%	73%	75%	82%	81%	82%	% inhibition at 0.020 nM [9]: -7%; % inhibition at 0.070 nM [9]: 24%; % inhibition at 0.21 nM [9]: 21%; % inhibition at 0.62 nM [9]: 46%; % inhibition at 1.9 nM [9]: 91%; % inhibition at 5.6 nM [9]: 129%; % inhibition at 16.7 nM [9]: 120%; IC50 [9]: 0.99 nM
1D4 (antibody, IgG4, V domains shown, Fully human XenoMouse antibody; also used where no isotype is printed) VH: QLQLQESGPGLVKPSETLSLTCTVSGGSISSSSYYWGWIRQPPGKGLEWIGSFYYSRSTYYNPSLKSRVTISVDTSKNQFSLKLSSVTAADTAVHYCARGSIAVPDAFDIWGQGTMVTVSS VL: SYELTQPPSVSVSPGQTASITCSGDKLGDKFACWYQQKPGHSPVLVVYQDNKRPSGIPERFSGSNSGNSATLTISGTQAMDEADYYCQAWDSNTAVFGGGTKLTVL	1.01	196	10600	2.08e+06	16.8	35.3	105%	71%	146%	107%	23	3250	74800	1.09	45%	43%	46%	72%	73%	71%	% inhibition at 0.020 nM [9]: 7%; % inhibition at 0.070 nM [9]: -2%; % inhibition at 0.21 nM [9]: 5%; % inhibition at 0.62 nM [9]: 13%; % inhibition at 1.9 nM [9]: 58%; % inhibition at 5.6 nM [9]: 124%; % inhibition at 16.7 nM [9]: 123%; IC50 [9]: 2 nM

Now from value to binder, other results behind:

Jagged1/mock ratio [1]	Count [2]	FL1 [2]	FL1 x count [2]	Jagged1/293T X Geo mean [3]	Dll1/293T X Geo mean [4]	% inhibition n = 1 [5]	% inhibition n = 2 [5]	% inhibition n = 3 [5]	Mean % inhibition [5]	Count [6]	FL1 [6]	FL1 x count [6]	Dll1/mock ratio [7]	% inhibition 1 µg/ml, AVERAGE (HUVEC proliferation on coated DLL4) [8]	% inhibition 1 µg/ml, N = 1 (HUVEC proliferation on coated DLL4) [8]	% inhibition 1 µg/ml, N = 2 (HUVEC proliferation on coated DLL4) [8]	% inhibition 10 µg/ml, AVERAGE (HUVEC proliferation on coated DLL4) [8]	% inhibition 10 µg/ml, N = 1 (HUVEC proliferation on coated DLL4) [8]	% inhibition 10 µg/ml, N = 2 (HUVEC proliferation on coated DLL4) [8]	Binder	further results
1.1	166	9470	1.57e+06	16.4	36.8	105%	120%	142%	122%	1	1940	1940	1.06	65%	50%	80%	90%	74%	106%	3A7 (antibody, IgG4, V domains shown, Fully human; also used where no isotype is printed) VH: EVQVVESGGGLVQPGGSLRLSCEASGFTFSNYWMIWVRQAPGKGLEWVASIKEDGSEKYYVDSVKGRFTISRDNAKSSLYLQMNSLRAEDTAVYYCVRDWELRGHYYYHGMDVWGQGTTVTVSS VL: DIQMTQSPSSLSASVGDRVTITCRASLDIRNDLGWFLQKPGKAPKRLIYAASSLQSGVPSRFSGSGSGTEFTLTINSLQPEDFATYYCLQHRNYPFTFGPGTKVDFK	% inhibition at 0.020 nM [9]: -1%; % inhibition at 0.070 nM [9]: 7%; % inhibition at 0.21 nM [9]: -1%; % inhibition at 0.62 nM [9]: 19%; % inhibition at 1.9 nM [9]: 39%; % inhibition at 5.6 nM [9]: 82%; % inhibition at 16.7 nM [9]: 104%; IC50 [9]: 2.94 nM
1.04	206	11000	2.27e+06	18.7	30.6	106%	145%	147%	133%	2	4720	9450	1.17	31%	20%	41%	44%	38%	49%	4B3 (antibody, IgG4, V domains shown, Fully human; also used where no isotype is printed) VH: QVQLVQSGAEVRKSGASVKVSCKASGYSFTTYDINWVRQATGQGLEWMGWMNPNSGYTDYAQKFQGRVTLTRNMSIDTAYMELSSLRSEDTAVYYCARAYYYDSSAYYLFDYWGQGTLVTVSS VL: DIQMTQSPSSLSASVGDRVTITCRASQGISNYLAWFQQKPGKAPKSLIYAASSLQSGVPSKFSGSGSGTDFTLTISSLQPEDFATYFCQQYISYPLTFGGGTKVEI	% inhibition at 0.020 nM [9]: -1%; % inhibition at 0.070 nM [9]: 5%; % inhibition at 0.21 nM [9]: -3%; % inhibition at 0.62 nM [9]: 20%; % inhibition at 1.9 nM [9]: 40%; % inhibition at 5.6 nM [9]: 89%; % inhibition at 16.7 nM [9]: 117%; IC50 [9]: 3.33 nM
